# According to patent US20170298113A1 (TEL HASHOMER MEDICAL RESEARCH INFRASTRUCTURE AND SERVICES, published 2017):
# *1 amine or outer side, *2 acyl side, *3 side chain or, on linkers, in order; H or OH if unused. Bridges are numbered along the chain shown (N, C = ends). Primed or numbered codes have the meaning given here. [ ]: non-standard residue; d: D form. N(2-mercaptoethyl)Gly = O=C(CN(CCS[*:3])[*:1])[*:2]; FITC′ = fluorescein isothiocyanate; Orn = NCCC[C@H](N)C(=O)O; Aib = CC(C)(N)C(=O)O; GABA = NCCCC(=O)O
# B1: Compound 7 (peptide)
# peptide: {FITC′-GABA}-[dF]CY[dW][Orn]TF[N(2-mercaptoethyl)Gly]-NH2
# modifications: disulfide 2-8
# B2: Compound 16 (peptide)
# peptide: XCFWXXTFX
# modifications: FITC-GABA-DPhe-Cys*-Phe-Trp-DTrp-HomoLys-Thr-Phe-GlyS2*-NH2 (* = S-S bond; HomoLys = homolysine; GlyS2 = N-thioethyl glycine; C-terminal amide)
# B3: Compound 3 (peptide)
# peptide: XCFWXXTFX
# modifications: FITC-GABA-DPhe-Cys*-Phe-Trp-DTrp-Orn-Thr-Phe-GlyS2*-NH2 (* = S-S bond; GlyS2 = N-thioethyl glycine; Orn = ornithine; C-terminal amide)
# B4: Compound 14 (peptide)
# peptide: XCFWXXTFX
# modifications: FITC-GABA-DPhe-Cys*-Phe-Trp-DTrp-LysAc-Thr-Phe-GlyS2*-NH2 (* = S-S bond; LysAc = acetyllysine; GlyS2 = N-thioethyl glycine; C-terminal amide)
# B5: Compound 1 (peptide)
# peptide: XCFWXKTFX
# modifications: FITC-GABA-DPhe-Cys*-Phe-Trp-DTrp-Lys-Thr-Phe-GlyS2*-NH2 (* = S-S bond; GlyS2 = N-thioethyl glycine; FITC-GABA on the N-terminal amine; C-terminal amide)
# B6: Compound 2 (peptide)
# peptide: {FITC′-GABA}-[dF]RCF[dW]KTF[N(2-mercaptoethyl)Gly]-NH2
# modifications: disulfide 3-9
# B7: Compound 4 (peptide)
# peptide: {FITC′-GABA}-[dF]CYW[dW]KTF[N(2-mercaptoethyl)Gly]-NH2
# modifications: disulfide 2-9
# B8: Compound 6 (peptide)
# peptide: {FITC′-GABA}-[dF]RCY[dW]KTF[N(2-mercaptoethyl)Gly]-NH2
# modifications: disulfide 3-9
# B9: Compound 8 (peptide)
# peptide: {FITC′-GABA}-[dF]CRFF[dW]KTF[N(2-mercaptoethyl)Gly]-NH2
# modifications: disulfide 2-10
# B10: Compound 5 (peptide)
# peptide: {FITC′-GABA}-[dF]RCF[dW][Orn]TF[N(2-mercaptoethyl)Gly]-NH2
# modifications: disulfide 3-9
# B11: Compound 15 (peptide)
# peptide: {FITC′-GABA}-[dF]CFW[dW]RTF[N(2-mercaptoethyl)Gly]-NH2
# modifications: disulfide 2-9
# B12: Compound 11 (peptide)
# peptide: XXFWXKTFX
# modifications: FITC-GABA-DPhe-HCys*-Phe-Trp-DTrp-Lys-Thr-Phe-GlyS2*-NH2 (* = S-S bond; HCys = homocysteine; GlyS2 = N-thioethyl glycine; C-terminal amide)
# B13: Compound 13 (peptide)
# peptide: {FITC′-GABA}-[dF]CFW[dW][Aib]TF[N(2-mercaptoethyl)Gly]-NH2
# modifications: disulfide 2-9
# Target: human somatostatin receptor subtype SSTR4 (human) (UniProt P31391)
# Assay: FACS, transfected HEK-293 cells; row normalised to highest
# Sequence of human somatostatin receptor subtype SSTR4 (human) (P31391 whole entry): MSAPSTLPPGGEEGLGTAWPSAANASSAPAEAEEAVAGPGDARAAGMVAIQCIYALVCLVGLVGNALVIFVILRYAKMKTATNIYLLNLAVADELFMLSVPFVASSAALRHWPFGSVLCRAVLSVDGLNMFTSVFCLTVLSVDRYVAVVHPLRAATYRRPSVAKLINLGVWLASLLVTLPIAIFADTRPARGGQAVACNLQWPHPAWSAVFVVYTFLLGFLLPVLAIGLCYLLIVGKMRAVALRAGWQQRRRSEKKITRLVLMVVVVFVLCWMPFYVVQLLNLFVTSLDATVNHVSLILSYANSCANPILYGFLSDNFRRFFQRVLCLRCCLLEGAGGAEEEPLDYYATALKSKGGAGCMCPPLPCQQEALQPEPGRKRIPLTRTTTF
row,Adjusted binding affinity,Binder
1,0.75,B1
2,0.38,B2
3,0.85,B3
4,1,B4
5,0.79,B5
6,0.8,B6
7,0.33,B7
8,0.07,B8
9,1,B9
10,0.33,B10
11,0.67,B11
12,0.71,B12
13,0.44,B13

# Target: human somatostatin receptor subtype SSTR5 (human) (UniProt P35346)
# Assay: as above
# Sequence of human somatostatin receptor subtype SSTR5 (human) (P35346 whole entry): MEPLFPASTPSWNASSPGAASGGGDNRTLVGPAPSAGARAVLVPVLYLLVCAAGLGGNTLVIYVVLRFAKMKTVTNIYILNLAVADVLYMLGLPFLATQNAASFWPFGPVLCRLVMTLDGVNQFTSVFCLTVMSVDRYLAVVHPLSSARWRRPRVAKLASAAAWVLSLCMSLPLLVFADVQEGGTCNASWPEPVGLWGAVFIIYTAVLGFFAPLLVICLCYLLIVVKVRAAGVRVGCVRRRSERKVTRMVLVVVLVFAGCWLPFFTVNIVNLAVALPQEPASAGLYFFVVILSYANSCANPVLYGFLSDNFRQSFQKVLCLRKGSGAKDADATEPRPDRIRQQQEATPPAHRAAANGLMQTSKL
row,Adjusted binding affinity,Binder
1,0.5,B1
2,0.58,B2
3,0.59,B3
4,0.67,B4
5,1,B5
6,1,B6
7,0.4,B7
8,0.02,B8
9,0.87,B9
10,0,B10
11,0.56,B11
12,1,B12
13,1,B13

# Target: human somatostatin receptor subtype SSTR3 (human) (UniProt P32745)
# Assay: as above
# Sequence of human somatostatin receptor subtype SSTR3 (human) (P32745 whole entry): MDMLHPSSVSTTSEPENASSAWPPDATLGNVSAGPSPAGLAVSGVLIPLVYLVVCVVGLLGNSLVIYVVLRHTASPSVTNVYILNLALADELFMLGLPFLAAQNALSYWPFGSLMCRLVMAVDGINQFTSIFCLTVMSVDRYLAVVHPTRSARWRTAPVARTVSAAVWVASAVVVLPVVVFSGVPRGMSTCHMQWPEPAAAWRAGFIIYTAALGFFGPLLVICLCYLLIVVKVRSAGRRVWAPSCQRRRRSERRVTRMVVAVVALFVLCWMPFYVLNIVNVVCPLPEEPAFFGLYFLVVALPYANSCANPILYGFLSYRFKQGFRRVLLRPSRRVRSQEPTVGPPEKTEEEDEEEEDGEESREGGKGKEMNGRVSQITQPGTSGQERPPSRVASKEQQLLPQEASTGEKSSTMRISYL
row,Adjusted binding affinity,Binder
1,1,B1
2,1,B2
3,1,B3
4,0.6,B5
5,0.8,B6
6,1,B7
7,1,B8
8,0.37,B9
9,1,B10
10,1,B11
11,0.67,B13

# Target: human somatostatin receptor subtype SSTR2 (human) (UniProt P30874)
# Assay: as above
# Sequence of human somatostatin receptor subtype SSTR2 (human) (P30874 whole entry): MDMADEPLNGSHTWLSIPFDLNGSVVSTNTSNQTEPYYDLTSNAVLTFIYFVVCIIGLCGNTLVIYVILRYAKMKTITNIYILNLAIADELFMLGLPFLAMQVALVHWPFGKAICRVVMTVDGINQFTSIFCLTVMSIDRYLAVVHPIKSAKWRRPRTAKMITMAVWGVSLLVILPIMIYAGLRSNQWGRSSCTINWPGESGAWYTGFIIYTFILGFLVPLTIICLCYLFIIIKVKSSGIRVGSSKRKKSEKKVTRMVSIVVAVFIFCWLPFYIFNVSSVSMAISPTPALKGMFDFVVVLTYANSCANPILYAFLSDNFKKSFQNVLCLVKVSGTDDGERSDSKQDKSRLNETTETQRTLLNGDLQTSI
row,Adjusted binding affinity,Binder
1,0.5,B1
2,0.21,B2
3,0.27,B3
4,0.23,B5
5,1,B6
6,0.33,B7
7,0.07,B8
8,0.14,B9
9,0.33,B10
10,0.37,B11
11,0,B13

# Target: human somatostatin receptor subtype SSTR1 (human) (UniProt P30872)
# Assay: as above
# Sequence of human somatostatin receptor subtype SSTR1 (human) (P30872 whole entry): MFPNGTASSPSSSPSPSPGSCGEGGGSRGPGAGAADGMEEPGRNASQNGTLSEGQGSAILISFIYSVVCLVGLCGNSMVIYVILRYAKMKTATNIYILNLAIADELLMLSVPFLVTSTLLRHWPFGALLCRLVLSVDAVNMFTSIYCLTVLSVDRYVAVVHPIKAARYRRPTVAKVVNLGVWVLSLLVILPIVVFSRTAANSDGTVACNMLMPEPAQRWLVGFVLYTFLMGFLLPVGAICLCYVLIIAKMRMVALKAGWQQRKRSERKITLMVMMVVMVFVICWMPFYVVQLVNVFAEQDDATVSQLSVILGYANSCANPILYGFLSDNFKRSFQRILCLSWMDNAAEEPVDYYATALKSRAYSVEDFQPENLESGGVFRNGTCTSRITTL
row,Adjusted binding affinity,Binder
1,0,B1
2,0,B2
3,0.23,B3
4,0.11,B5
5,1,B6
6,0.13,B7
7,0,B8
8,0.08,B9
9,0,B10
10,0.3,B11
11,0.11,B13

# Target: human somatostatin receptor subtype SSTR4 (human) (UniProt P31391)
# Assay: FACS, transfected HEK-293 cells
row,Relative binding affinity [%],Binder
1,1.5,B1
2,4.5,B2
3,13.3,B3
4,3,B4
5,22.5,B5
6,4,B6
7,13.3,B7
8,1.5,B8
9,31.5,B9
10,1,B10
11,9,B11
12,29,B12
13,4,B13

# Target: human somatostatin receptor subtype SSTR5 (human) (UniProt P35346)
# Assay: FACS, transfected HEK-293 cells
row,Relative binding affinity [%],Binder
1,1,B1
2,7,B2
3,9.3,B3
4,2,B4
5,28.5,B5
6,5,B6
7,9.3,B7
8,0.5,B8
9,27.5,B9
10,7.5,B11
11,41,B12
12,9,B13

# Target: human somatostatin receptor subtype SSTR3 (human) (UniProt P32745)
# Assay: FACS, transfected HEK-293 cells
row,Relative binding affinity [%],Binder
1,2,B1
2,12,B2
3,15.7,B3
4,17,B5
5,4,B6
6,15.7,B7
7,22.5,B8
8,11.5,B9
9,3,B10
10,13.5,B11
11,6,B13

# Target: human somatostatin receptor subtype SSTR2 (human) (UniProt P30874)
# Assay: FACS, transfected HEK-293 cells
row,Relative binding affinity [%],Binder
1,1,B1
2,2.5,B2
3,4.3,B3
4,6.5,B5
5,5,B6
6,4.3,B7
7,1.5,B8
8,4.5,B9
9,1,B10
10,5,B11

# Target: human somatostatin receptor subtype SSTR1 (human) (UniProt P30872)
# Assay: FACS, transfected HEK-293 cells
row,Relative binding affinity [%],Binder
1,3.6,B3
2,3,B5
3,5,B6
4,3.6,B7
5,2.6,B9
6,4,B11
7,1,B13

# Target: human somatostatin receptor subtype SSTR4 (human) (UniProt P31391)
# Assay: FACS, transfected HEK-293 cells; normalised to Compound 1
row,Binding affinity relative to Compound 1 (% of Compound 1),Binder
1,7,B1
2,20,B2
3,59,B3
4,13,B4
5,100,B5
6,18,B6
7,36,B7
8,7,B8
9,140,B9
10,4,B10
11,40,B11
12,129,B12
13,18,B13

# Target: human somatostatin receptor subtype SSTR5 (human) (UniProt P35346)
# Assay: as above
row,Binding affinity relative to Compound 1 (% of Compound 1),Binder
1,4,B1
2,25,B2
3,33,B3
4,7,B4
5,100,B5
6,18,B6
7,4,B7
8,2,B8
9,96,B9
10,0,B10
11,26,B11
12,144,B12
13,32,B13

# Target: human somatostatin receptor subtype SSTR3 (human) (UniProt P32745)
# Assay: as above
row,Binding affinity relative to Compound 1 (% of Compound 1),Binder
1,12,B1
2,71,B2
3,92,B3
4,100,B5
5,24,B6
6,141,B7
7,132,B8
8,68,B9
9,18,B10
10,79,B11
11,35,B13

# Target: human somatostatin receptor subtype SSTR2 (human) (UniProt P30874)
# Assay: as above
row,Binding affinity relative to Compound 1 (% of Compound 1),Binder
1,15,B1
2,38,B2
3,66,B3
4,100,B5
5,77,B6
6,123,B7
7,23,B8
8,69,B9
9,15,B10
10,77,B11
11,0,B13

# Target: human somatostatin receptor subtype SSTR1 (human) (UniProt P30872)
# Assay: as above
row,Binding affinity relative to Compound 1 (% of Compound 1),Binder
1,0,B1
2,0,B2
3,120,B3
4,100,B5
5,167,B6
6,100,B7
7,0,B8
8,78,B9
9,0,B10
10,133,B11
11,33,B13
